Test results: patent US20150010566A1

Assays:
Experiment in all cases: cell-based or functional assay
[1] = target: HA of Influenza H3N2 (A/Swine/St. Oedenrode/1996), on infected MDCK cells or on virus (Influenza A virus H3N2 A/Swine/St. Oedenrode/1996 (host Swine))
[2] = target: HA of low pathogenic H7N1 (A/Ch/Italy/1067/1999), on infected MDCK cells or on virus (Influenza A virus H7N1 A/Ch/Italy/1067/1999 (host Chicken))
[3] = target: HA of Influenza H1N1 (A/Hawaii/31/2007), on infected MDCK-SIAT cells or on virus (Influenza A virus H1N1 A/Hawaii/31/2007)
[4] = target: HA of high pathogenic H7N7 (A/Ch/Neth/621557/03), on infected MDCK cells or on virus (Influenza A virus H7N7 A/Ch/Neth/621557/03 (host Chicken))
[5] = target: HA of Influenza H1N1 (A/Neth/602/2009), on infected MDCK cells or on virus (Influenza A virus H1N1 A/Neth/602/2009 (host Human))
[6] = target: HA of Influenza H3N2 (A/Netherlands/177/2008), on infected MDCK-SIAT cells or on virus (Influenza A virus H3N2 A/Netherlands/177/2008)
[7] = target: HA of H3N2 HKX-31 virus (Influenza A virus H3N2 HKX-31)
[8] = target: HA of H5N1 A/turkey/Turkey/05 virus (Influenza A virus H5N1 A/turkey/Turkey/05)

Binder	IC50, in vitro virus neutralization on MDCK cells [1]	IC50, in vitro virus neutralization on MDCK cells [2]	IC50, in vitro virus neutralization on MDCK-SIAT cells [3]	IC50, in vitro virus neutralization on MDCK cells [4]	IC50, in vitro virus neutralization on MDCK cells [5]	IC50, in vitro virus neutralization on MDCK-SIAT cells [6]	IC50, in vitro virus neutralization on MDCK-SIAT cells [7]	IC50, in vitro virus neutralization on MDCK cells [8]
AT10-003 (antibody, V domains shown) VH: QVHLVQSGAEVRKPGASVKVSCKVSGYTLNELSIHWLRQAPGRGLEWMGSFDPEDGETIYAQKFQGRVTMTGDTSTDTAYLELTSLRSEDTALYYCARGWGAVTSPFDFWGQGTLVTVSS VL: DIVMTQSPLSLPVTPGEPASISCRSSQSLLHSNGHIYFDWYLQKPGQSPQLLIYLVSKRASGVPDRFSGSGSGTDFTLKISRVEAEDVGVYYCMQALETPFTFGPGTKVHIKR	> 15 mg/L	> 15 mg/L	> 15 mg/L	> 15 mg/L	> 15 mg/L	> 50 mg/L	–	–
AT10-001 (antibody, V domains shown) VH: EVQLLESGGGLVQPGGSLRLSCAASGFSFSTYAMSWVRQAPGKGLEWVSGISGSGESTYYADSVKGRFTVSRDNSKNTLYLQMNSLRAEDTAVYYCAKQGDHIAWLLRGINFDYWGQGVLVTVSS VL: EIVLTQSPGTLSLSPGERATLSCRASQSVSSSYLAWYQQKPGQAPRLLIYGASTRATGIPDRFSGRGSGTDFTLTISSLEPEDFAVYYCQNYGSPFLFTFGPGTKVDIKR	14 mg/L	> 15 mg/L	–	0.4 mg/L	> 15 mg/L	0.64 mg/L	–	–
AT10-004 (antibody, V domains shown) VH: QVQLVQSGAEVRKPGASVKVSCKASGYTFTRHGISWVRQAPGQGLEWMGWISAYTGDTDYAQKFQGRVTMTTDTSTNTAYMELRSLRSDDAAVYYCARLRLQGEVVVPPSQSNWFDPWGQGTLVTVSS VL: EIVLTQSPATLSLYPGERATLSCRASQSVSRYLAWYQQKPGQAPRLLIYDASNRATGIPARFSGSGSGTDFTLTISSLEPEDFAVYYCQQRSNWLKITFGQGTRLEIKG	2.3 mg/L	0.6 mg/L	> 50 mg/L	0.2 mg/L	> 15 mg/L	0.17 mg/L	0.017 mg/L	> 15 mg/L
AT10-002 (antibody, V domains shown) VH: QLQLQESGPRLVKPSETLSLTCSVSGVSISSSNYYWGWIRQPPGKGLEWIGTIYHSGSTYYNPSLKSRLIISVDTSKNQFYLQLTSLTAADSAVYYCATGGGFGWSQTYFGYWGQGTLVTASS VL: QSALTQPASVSGSPGQSITISCTGTSSDVGAYNYVSWYQHHPGKAPKLMIYDVTYRPSGVSTRFSGSKSGNTASLTISGLQAEDEADYYCSSQSRSSTLVIFGGGTKLTVLG	0.3 mg/L	3.6 mg/L	> 15 mg/L	0.1 mg/L	> 15 mg/L	0.18 mg/L	–	–
